Laboratory results: the nanobody polyreactivity screen of Harvey et al. (2022)

Test: yeast display, Sf9 membrane polyspecificity reagent, FACS + sequencing; frameworks hold sequencing errors
Outline: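 Nanobodies came from a synthetic yeast display library in Saccharomyces cerevisiae BJ5465, induced with galactose for 36–48 hours and stained for 1 hour at 4 °C with 10% biotinylated, detergent-solubilized Sf9 membrane reagent. Cells were enriched on streptavidin microbeads and then FACS-sorted, with low and high (top ~1%) gates set on anti-HA fluorescence for expression and streptavidin fluorescence for reagent binding. Each polyreactivity label reflects the gate a clone came from. Genes were amplified by colony PCR, sequenced by MiSeq 2 × 250 and filtered by CDR length.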

## QVQLVESGGGLVQAGGSLRLSCAASGNILGTYAMGWYRQAPGKERELVAAISSSVGSTYYADSVKGRFSISRDNAKKTVYLQMNSLKPEDTAVYYCAARNYQFYEKWGYLYDYWGQGTQVTVSS
  polyreactivity (PSR sort gate): low polyreactivity

## QLQLHESGGGLVQAGGGLRLICAASGSISSTVFMGWYRQAPGKEREPVAAIAPCTTTYYADSLKGRFTISRDNAKNTVYLQKNSLRPEDTAVYYCAVFTDNRVAFLYWGQGTQVTLSS
  polyreactivity (PSR sort gate): low polyreactivity

## QGQLVESGGGLVQAGGSLRLSCAASGRTFVDYDMGWYRQAAGKERELVADINSGGSTYYADSVKGRFTISRDNAKNTVYLQMNSLKREDSAVYYCAADDGWGYISSYDYEYWGQGTQVTVSS
  polyreactivity (PSR sort gate): high polyreactivity

## QVQLVESGGGLVQAGGSLRLSCAASGSTFSSYVMGWDRQARGKERELVAAISSIGGSTYYADSVKGRFTISRDNAKNTVYLQMNSLKPEDTAVYYCAAEPPGSTYEGGYWGQGTQVTVSS
  polyreactivity (PSR sort gate): low polyreactivity

## QVQLVESGGGLVQAGGSLRLSCAASGLILRKYAMGWYRQAPGKEREFVAAITQTGSRTYYADSVKGRFTISRDNAKNPVYLQMNSLKPEDTAVYYCAADLPRWGSYGYGKMDHWGQGTQVTVSS
  polyreactivity (PSR sort gate): high polyreactivity

## QVQLVDSRGCLVQAGGSLRLSFAASGSIFGYYSMVWYIQAPGKESELVAAISYSGSRTYYADSVKGRFTISRDNAKNTVYLQKNSLKPEDTAVYYCAVLRRDGFEYWGQGTQVTVSS
  polyreactivity (PSR sort gate): high polyreactivity

## QGQLVESGGALVQAGGSLRLSCAPSGRTFHGYAMGGYRQAPGKERELVARINWSDGRTYYADSVKGRFTISRDNAKNTVYLQMNSLKPEDTAVYYCAADKTVSYGPAWYYYWGQGTQVTVSS
  polyreactivity (PSR sort gate): low polyreactivity

## QVQLVESGGGLVQAGGSLRLTCAASGRIFTRYAMGWYRQAPGKERELVAAINYRGSSTYYADSVKGRFTISRDNAKNTVYLQMNSLKPEDTAVYYCNTYGQTDTYWRYYYWGQGTQVTVSS
  polyreactivity (PSR sort gate): high polyreactivity

## QVHLVESVGGLVQAGGSHRLSCAASGRTLGFYAMGWYRQAPGKERELVAAINWSGGSTYYADSVKGRFTISRDNAKNTVYLQMNSLKPEDTAVYNCGVGTNYYDYWGQGTQVTVSS
  polyreactivity (PSR sort gate): high polyreactivity

## QVQLVESGGGLVQAGGSLRLSCAASGRIFPVNAMGRYRQAPGKERELVATISSGDITNYADSVKGRFTISRDNAKNTVYLQMNSLKPEDTAVYYCNADTSYSEWGSWYYEYDYWGQGTQVTVSS
  polyreactivity (PSR sort gate): low polyreactivity

## QVQLVESGGGLLQAGGSLRLICAASGSTFSTNAMGWYRQAPGKERELVAAISRSGGSTNYADSVKGRFTISRDNAKNTVYLQMNSLKPEDTAVYYCARYSYRGTNVRYDYWGQGTQVTVSS
  polyreactivity (PSR sort gate): high polyreactivity

## QVQLVESGGGLVQAGCSLRLSCAASGFTFRANGMGWYRQAPGKERELVATITSGGTTNYADSVKGRFTISRDNAKNTVYLQMNSLKPEDTAVYYCAKRFGPAYFRLYDYWGQGTQVTVSS
  polyreactivity (PSR sort gate): low polyreactivity

## QVQLVESGGGLVQAGGSLRLSCAASGIIFGSYAMGWSRQAPGKERELVAAISYSGSTFYADSVKGRFTISRDNAKNTVYLQMNSLKPEDTAVYYCNADRYAKWYRKYRPNDYWGQGTQVTVSS
  polyreactivity (PSR sort gate): high polyreactivity

## QVQIVESGGVLVQAGGSLRLSCAASGITLRVYVMGWYRQAPGKERELVAAITSRGDRTYYADSVKGRSTISRDNAKNTVYLQMNSLKPEDTAVYDCAARYYSYPPGLSQTRLTYYYWGQGTQVTVSS
  polyreactivity (PSR sort gate): high polyreactivity

## QVQLVESGGGLVQAGGSLRLSCAASGFTFRYYAMGWYRQAPGKEREFVAAITRSGGRTYYADSVKGRFTISRDNAKNTVYLQMNSLKPEDTAVYYCAARYVSRFDWGQGTQVTVSS
  polyreactivity (PSR sort gate): high polyreactivity

## QVQLVESGGGLVQAGGSLRLSCAASGGILVFYALGWYRQSPGKERELVAAINVSGGSTYYADSVKGRFTISRDNAKNTVYLQMNSLKPEDTAVYYCAALGPYLDYGVQYGYWGQGTQVTVSS
  polyreactivity (PSR sort gate): low polyreactivity

## QVHLVESGGGLVQAGGSLRLSCAASGSIFINNTMGWYRQAPGKERELVAAISITGGSTYYADSVKGRFTISRDNAKNTVYLQMNSLKPEDTAVYYCAADPLQLYDYNYWGQGTQVTVSS
  polyreactivity (PSR sort gate): low polyreactivity
